{"source": "paper PMC5467207", "about": "“Single-peptide DNA-dependent RNA polymerase homologous to multi-subunit RNA polymerase” (Nature Communications, 2017)", "molecules": {"B1": {"name": "YonO (Bacillus subtilis subsp. subtilis str. 168) (protein)", "chain": "MKGKKDGLNKQVHIYSIDTSAFYNDQENKLHNKILKSYRYRDHLRKLEHVDKKHKKYITQRIISLKEKLYNAFNDHNQIRTLRTDSLKDNNVISLFDSVLTRTLGIKENSLSEEIMVVQTYHFQILRDIIDKGFIHNNEKYVYFTSSAGQIRTKKSCFIKQSTLDKYQNALTCGLSVEHINAQGGSSINKWNSYMALSNSASSSWEIDIDKAIVVNDLETNVSSLVDYIDRDTYEITRKIMDIPIEHTDGCGMMLPSLSQKSFMVRLPWVKGLLVPFDFRKFAEKHSSFIVKDVYGKEWDIIKDDIQIIFTKSQFKMWKYYDSWDDYRYKFKKYGCLGAKLNEEDPSVEGKLTYQMLQTLTDITDEELKQISSKTVSEITQLGTDKETMMKVLGATEKNKHKTSLQEALLIYPELLNDDHTKEIIKNKKKSMIKDAKSGKLLVSDARYTYLCPDLYAFCERLFLGIESPKGLLSGSDVHCSLYDEGYIDILRSPHLFREHGVRWNKKNEEYEKWFITPGVYTSIHDPISKLLQFDNDGDKALIISDELIVNIAKRNMADIVPLYYEMSVAQKQEINSRNIYEALTLAYGINIGEYSNNITKIWNSDNINLDVIKWLCMENNFTIDFAKTLFMPTRPDHVDEKIKDYIKNKVPHFFINAKDKEEHSVESINESTVNKLDSIIPSDRINFAAVAGKFDYRFLLKNKEIKLNEAVINEYKRLDRNKKWLMNDEEAKPGQKLYVYKIIKQKLLEIHNDDGFITDVLVKHLYKKKSKYKSTLWECFGDIVLENIKHNLKTFKGCCICGKAFKPTSNKAKYCQSCGKKKERDKYKKYNKKRINHR", "notes": "N-terminal 6xHis-tag, pET-28a, expressed in E. coli T7 Express; single chain, ~100 kDa"}}, "key": {"[1]": {"tested_on": "T1, Nc1nc2c(ncn2[C@@H]2O[C@H](COP(=O)(O)OP(=O)(O)OP(=O)(O)O)[C@@H](O)[C@H]2O)c(=O)[nH]1", "T1 construct": "core enzyme without sigma, ~400 kDa five-subunit core (2α, β, β′, ω); 6xHis tag on the RNAP; with DNA-directed RNA polymerase subunit alpha; DNA-directed RNA polymerase subunit omega", "assay": "misincorporation in assembled elongation complexes, Urea-PAGE, Michaelis-Menten fit", "format": "biochemical, Escherichia coli", "details": "misincorporation (non-cognate NTP for the template base), assembled elongation complex, pH 8.5, MgCl2"}, "[2]": {"substrate": "Nc1ncnc2c1ncn2[C@@H]1O[C@H](COP(=O)(O)OP(=O)(O)OP(=O)(O)O)[C@@H](O)[C@H]1O", "assay": "RNA extension in assembled elongation complexes, Urea-PAGE, Michaelis-Menten fit", "format": "biochemical, Bacillus subtilis", "details": "10 °C, assembled elongation complex (template DNA, RNA primer), 20 mM Tris-HCl pH 8.5, 40 mM KCl, 10 mM MgCl2"}, "[3]": {"substrate": "Nc1nc2c(ncn2[C@@H]2O[C@H](COP(=O)(O)OP(=O)(O)OP(=O)(O)O)[C@@H](O)[C@H]2O)c(=O)[nH]1", "assay": "misincorporation in assembled elongation complexes, Urea-PAGE, Michaelis-Menten fit", "format": "biochemical, Bacillus subtilis", "details": "misincorporation (non-cognate NTP for the template base), assembled elongation complex, pH 8.5, MgCl2"}}}
{"molecule": "E. coli core msRNAP (Escherichia coli K-12)", "values": [{"measurement": "Km", "setting": "[1]", "value": "458 ± 23", "unit": "µM"}]}
{"molecule": "B1", "values": [{"measurement": "Km", "setting": "[2]", "value": "1.8 ± 0.7", "unit": "µM"}, {"measurement": "Km", "setting": "[3]", "value": "126 ± 41", "unit": "µM"}]}
